Measured values: patent US20220162619

Test system: T1, synthetic model peptide substrate PLVQ conjugated with 7-amino-4-methylcoumarin (AMC)
T1 sequence: PLVQ

| Substance | enzymatic (proteolytic) activity: hydrolysis of PLVQ-AMC, fluorescence of free AMC |
| --- | --- |
| recombinant truncated triticain-alpha with a C-terminal polyhistidine sequence, expressed in soluble form in E. coli | significantly exceeded the activity of the truncated triticain-alpha preparation 6HIS-Triticain-α-GM, obtained in an insoluble form, as well as that of papain |
| recombinant truncated triticain-alpha with an N-terminal polyhistidine sequence, expressed in soluble form in E. coli | significantly exceeded the activity of the truncated triticain-alpha preparation 6HIS-Triticain-α-GM, obtained in an insoluble form, as well as that of papain |
